These results are taken from article PMC10899660, “Global fungal-host interactome mapping identifies host targets of candidalysin” (Nature Communications, 2024).

The target in the test is Recombinant Cyclin H (CCNH) protein with a C-HIS tag (human) (UniProt P51946). Kind of test: SPR; Biacore T200, 25 °C, 30 μL/min, HBS-EP running buffer; CCNH amine-coupled on a CM5 chip (1200 RU); candidalysin in 1:1 serial dilution, multicycle, association 120 s, dissociation 150 s. In general terms: SPR reads the build-up and loss of mass on a sensor chip optically.
Chain of Recombinant Cyclin H (CCNH) protein with a C-HIS tag (human) (P51946 whole entry): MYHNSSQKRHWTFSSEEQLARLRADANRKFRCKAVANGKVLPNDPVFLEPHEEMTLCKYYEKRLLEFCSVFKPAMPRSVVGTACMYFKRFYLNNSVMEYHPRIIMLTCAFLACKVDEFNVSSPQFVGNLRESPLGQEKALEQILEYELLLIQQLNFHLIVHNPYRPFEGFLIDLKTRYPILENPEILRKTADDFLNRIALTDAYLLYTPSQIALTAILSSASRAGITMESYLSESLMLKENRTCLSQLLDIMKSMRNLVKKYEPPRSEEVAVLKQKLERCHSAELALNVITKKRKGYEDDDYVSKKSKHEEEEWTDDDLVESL

One may read the Kd as the equilibrium constant for the complex coming apart. A word on the koff: it is the first-order rate constant of dissociation. A word on the kon: it is the second-order rate constant of association.

Chain of candidalysin (Ece1-III), synthetic peptide (Q07730 62-92 limits assumed): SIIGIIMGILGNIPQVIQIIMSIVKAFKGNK

As for “candidalysin (Ece1-III), synthetic peptide”, the Kd amounted to 17.2 nM, the koff stood at 0.00171 s⁻¹ and the kon came to 99200 M⁻¹ s⁻¹.
